T1: corticotropin-releasing hormone (CRH) peptide (human and mouse, not fully specified)
T1 peptide: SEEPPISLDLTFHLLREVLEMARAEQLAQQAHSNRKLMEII

T2: corticotropin-releasing hormone (CRH) peptide (human and mouse (same sequence), not fully specified)
T2 peptide: T1 peptide

B1: PR006669 (antibody, human IgG1, kappa, V domains shown)
VH: EVQLVESGGGLVQPGGSLRLSCAASGFTFSDNWMSWVRQAPGKGLEWVANIKQDGSENYYVDSVKGRFTISRDNAKNSLYLQMNSLRAEDTAVYYCSRGLALWGWGQGTLVTVSS
VL: DIVMTHSPLSLPVTPGDPASISCRSSQSLLHSTGYNYLDWYLQKPGQSPQLLIYLGSNRASGVPDRFSGSGSGTDFTLKFIRVEAEDVGVYYCMQALQTPYTFGQGTKLEIKR
B2: PR302309-13 (antibody, human IgG1, kappa, V domains shown)
VH: QVQLVQSGSELKKPGASVKVSCKASGYTFTNYGMNWVRQAPGQGLEWMGWINTYTGEPIYTDDFKGRFVFSLDTSVSTAYLQISSLKAEDTAVYYCARSTMITTGGVFAYWGQGTLVTVSS
VL: DVLMAQTPLSLPVSLGDQASISCRSSQTIVHSDGNTYLEWYLQKPGQSPKLLIYKVSNRFSGVPDRFSGSGSGTDFTLKISRVEAEDLGVYYCFQGSHVPWTFGGGTKLEIKR
B3: PR302309-16 (antibody, human IgG1, kappa, V domains shown)
VH: QIQLVQSGAEVKKPGASVKVSCKASGYTFTNYGMNWVRQAPGQRLEWMGWINTYTGEPIYTDDFKGRVTITLDTSASTAYMELSSLRSEDTAVYYCSRSTMITTGGVFAYWGQGTLVTVSS
VL: B2 VL
B4: PR302309-15 (antibody, human IgG1, kappa, V domains shown)
VH: B3 VH with I2V, L72R, S97A
VL: B2 VL
B5: PR302309-14 (antibody, human IgG1, kappa, V domains shown)
VH: B2 VH with V2I, A97S
VL: B2 VL
B6: PR302309-1 (antibody, human IgG1, kappa, V domains shown)
VH: QIQLVQSGPELKKPGETVKISCKASGYTFTNYGMNWVKQAPGKVLKWMGWINTYTGEPIYTDDFKGRFAFSLETSASTAYLQINNLKNEDTATYFCSRSTMITTGGVFAYWGQGTLVTVSA
VL: DVVMTQSPLSLPVTLGQPASISCRSSQTIVHSDGNTYLEWFQQRPGQSPRRLIYKVSNRFSGVPDRFSGSGSGTDFTLKISRVEAEDVGVYYCFQGSHVPWTFGGGTKVEIKR
B7: PR302309-17 (antibody, human IgG1, kappa, V domains shown)
VH: B2 VH
VL: B6 VL with F41Y, R51L, V88L
B8: PR302309-5 (antibody, human IgG1, kappa, V domains shown)
VH: B6 VH
VL: B6 VL with V2I, S7T, L11S, F41L, S48P, R51L, S72A
B9: PR302309-7 (antibody, human IgG1, kappa, V domains shown)
VH: B2 VH with V2I, A97S
VL: B6 VL
B10: PR302309-8 (antibody, human IgG1, kappa, V domains shown)
VH: B2 VH with V2I, A97S
VL: B6 VL with F41Y, R51L, V88L
B11: PR302309-3 (antibody, human IgG1, kappa, V domains shown)
VH: B6 VH
VL: B6 VL with V2I, S7T, P12S, L15P, F41Y, Q42L, R44K, R50Q, R51L
B12: PR302309-6 (antibody, human IgG1, kappa, V domains shown)
VH: B6 VH
VL: B6 VL with S7T, L11S, F41Y, S48P, R51L, S72A, V88L
B13: PR302309-12 (antibody, human IgG1, kappa, V domains shown)
VH: B2 VH with V2I, A97S
VL: B6 VL with S7T, L11S, F41Y, S48P, R51L, S72A, V88L
B14: PR302309-9 (antibody, human IgG1, kappa, V domains shown)
VH: B2 VH with V2I, A97S
VL: B6 VL with V2I, S7T, P12S, L15P, F41Y, Q42L, R44K, R50Q, R51L
B15: PR302309-11 (antibody, human IgG1, kappa, V domains shown)
VH: B2 VH with V2I, A97S
VL: B6 VL with V2I, S7T, L11S, F41L, S48P, R51L, S72A
B16: PR302309-2 (antibody, human IgG1, kappa, V domains shown)
VH: B6 VH
VL: B6 VL with F41Y, R51L, V88L
B17: PR302309-4 (antibody, human IgG1, kappa, V domains shown)
VH: B6 VH
VL: B2 VL with L3V, A5T, P12S, S14T, L15P, D17Q, Q18P, K50Q, L109V
B18: PR302309-10 (antibody, human IgG1, kappa, V domains shown)
VH: B2 VH with V2I, A97S
VL: B2 VL with L3V, A5T, P12S, S14T, L15P, D17Q, Q18P, K50Q, L109V
B19: PR302334-10 (antibody, human IgG1, kappa, V domains shown)
VH: EVQLVESGGGLVQPGGSLRLSCAASGFTFSTYAMSWVRQAPGKGLEWVASIRSGGTTYYPDSVKGRFTISRDNSKNTLYLQMNSLRAEDTAVYYCTRGIDWGQGTTVTVSS
VL: DIVMTQSPDSLAVSLGERATINCKASQSVNNDVAWYQQKPGQPPRLLIYYASNRYTGVPDRFSGSGSGTDFTLTISSLQAEDLAVYFCQQDYSSWTFGGGTKVEIKR
B20: PR302334-22 (antibody, human IgG1, kappa, V domains shown)
VH: B19 VH with A49S, T77S, T96A
VL: EIVMTQSPATLSVSPGERATLSCKASQSVNNDVAWYQQKPGQAPRLLIYYASNRYTGIPARFSGSGSGTEFTLTISSLQSEDLAVYFCQQDYSSWTFGGGTKVEIKR
B21: PR302334-18 (antibody, human IgG1, kappa, V domains shown)
VH: B19 VH with T77S
VL: NIVMTQTPKFLLVSAGDRITITCKASQSVNNDVAWYQQKPGQSPKLLIYYASNRYTGVPDRFTGSGYGTDFTFTISTVQAEDLAVYFCQQDYSSWTFGGGTNLEIKR
B22: PR302334-26 (antibody, human IgG1, kappa, V domains shown)
VH: B19 VH with T77S
VL: B19 VL
B23: PR302334-25 (antibody, human IgG1, kappa, V domains shown)
VH: B19 VH with Q13K, S74A, T77S
VL: DIQMTQSSLSASVSLGDRVTITCKASQSVNNDVAWYQQKPGKAPRLLIYYASNRYTGVPSRFSGSGSGTDFTFTISSLQPEDLATYFCQQDYSSWTFGGGTKVEIKR
B24: PR302334-14 (antibody, human IgG1, kappa, V domains shown)
VH: B19 VH
VL: B21 VL
B25: PR302334-24 (antibody, human IgG1, kappa, V domains shown)
VH: B19 VH with Q13K, S74A, T77S
VL: B19 VL
B26: PR302334-27 (antibody, human IgG1, kappa, V domains shown)
VH: B19 VH with T77S
VL: B23 VL
B27: PR302334-17 (antibody, human IgG1, kappa, V domains shown)
VH: B19 VH with A49S, T77S, T96A
VL: B21 VL
B28: PR302334-16 (antibody, human IgG1, kappa, V domains shown)
VH: B19 VH with Q13K, S74A, T77S
VL: B21 VL
B29: PR302334-15 (antibody, human IgG1, kappa, V domains shown)
VH: B19 VH with Q13K, A49S, S74A, T77S, T96A
VL: B21 VL
B30: PR302334-11 (antibody, human IgG1, kappa, V domains shown)
VH: B19 VH
VL: B23 VL with L83I, F87Y
B31: PR302334-12 (antibody, human IgG1, kappa, V domains shown)
VH: B19 VH
VL: B23 VL

This note sets out measurements from patent US20260042834A1 (HBM ALPHA THERAPEUTICS, published 2026).

Numbering of substitutions follows the chain as printed.

The first test addresses T1, corticotropin-releasing hormone (CRH) …. Description: cell-based or functional assay.
As to B1, the “hCRHR1 Reporter IC50” value amounted to 7.38 nM.

The next test deals with T2, corticotropin-releasing hormone (CRH) …. Description: cell-based or functional assay.
For B2, the “hCRHR1 Luciferase Reporter Assay IC50” value was 7.23 nM.
Still for that read-out and setting: in the case of B3 it was 5.47 nM.
Turning to B4, the “hCRHR1 Luciferase Reporter Assay IC50” value was 10.5 nM.
As for B5, the “hCRHR1 Luciferase Reporter Assay IC50” value was 1.68 nM.
Regarding B6, the “hCRHR1 Luciferase Reporter Assay IC50” value came out at 4.42 nM.
Turning to B7, the “hCRHR1 Luciferase Reporter Assay IC50” value came to 6.69 nM.
On the same count and under the same terms, in the case of B8 it was 0.454 nM.
Take B9: the “hCRHR1 Luciferase Reporter Assay IC50” value is 6.38 nM.
Same read-out and setting: in the case of B10 it was 1.7 nM; in that of B11, 2.22 nM; in that of B12, 1.08 nM.
Take B13: the “hCRHR1 Luciferase Reporter Assay IC50” value is 4.47 nM.
Regarding B14, the “hCRHR1 Luciferase Reporter Assay IC50” value amounted to 6.08 nM.
Still for that read-out and setting: in the case of B15 it was 2.12 nM.
Still for that read-out and setting: in the case of B16 it was 0.773 nM.
Still for that read-out and setting: in the case of B17 it was 1.26 nM; in that of B18, 3.2 nM.

For another test the target is unchanged. As to the kind of experiment: cell-based or functional assay. This is another data set of the same source.
In the case of B19, the “hCRHR1 Luciferase Reporter Assay IC50” value turned out to be 0.839 nM and the “mCrhr1 Luciferase Reporter Assay IC50” value was 2.66 nM.
Regarding B20, the “hCRHR1 Luciferase Reporter Assay IC50” value worked out at 0.92 nM.
On the same count and under the same terms, in the case of B21 it was 0.279 nM.
Consider B22, for which the “hCRHR1 Luciferase Reporter Assay IC50” value amounted to 1.1 nM and the “mCrhr1 Luciferase Reporter Assay IC50” value was 1.34 nM.
B23: the “hCRHR1 Luciferase Reporter Assay IC50” value turned out to be 1.7 nM.
Still for that read-out and setting: in the case of B24 it was 0.468 nM.
As to B25, the “hCRHR1 Luciferase Reporter Assay IC50” value stood at 0.778 nM and the “mCrhr1 Luciferase Reporter Assay IC50” value came to 1.82 nM.
Consider B26, for which the “hCRHR1-Luc 0.5 nM CRH IC50” value was 1.36 nM, the “hCRHR1 Luciferase Reporter Assay IC50” value was found to be 1.36 nM and the “mCrhr1 Luciferase Reporter Assay IC50” value was determined as 2.27 nM.
Consider B27, for which the “hCRHR1 Luciferase Reporter Assay IC50” value came to 12.2 nM.
Still for that read-out and setting: in the case of B28 it was 0.339 nM.
Take B29: the “hCRHR1 Luciferase Reporter Assay IC50” value was 5.12 nM.
Take B30: the “hCRHR1 Luciferase Reporter Assay IC50” value stood at 1 nM.
For B31, the “hCRHR1 Luciferase Reporter Assay IC50” value was 0.986 nM.
